Measurements from paper PMC9482650, “Quantitative fragmentomics allow affinity mapping of interactomes” (Nature Communications, 2022).

T1: DLG3_3, Q92796
T1 sequence (Q92796 374-475, limits assumed, looked up): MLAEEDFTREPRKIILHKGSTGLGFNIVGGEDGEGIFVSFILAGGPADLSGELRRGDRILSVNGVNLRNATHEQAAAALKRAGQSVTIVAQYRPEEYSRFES

T2: SNTA1, Q13424
T2 sequence (Q13424 82-180, limits assumed, looked up): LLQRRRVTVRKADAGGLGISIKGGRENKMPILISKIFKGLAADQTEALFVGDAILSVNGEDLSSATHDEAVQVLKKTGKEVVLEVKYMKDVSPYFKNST

T3: DFNB31_1, Q9P202
T3 sequence (Q9P202 135-233, limits assumed, looked up): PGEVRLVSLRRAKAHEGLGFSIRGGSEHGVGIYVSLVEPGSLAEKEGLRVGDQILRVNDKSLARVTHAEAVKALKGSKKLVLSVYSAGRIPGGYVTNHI

T4: LIN7B, Q9HAP6
T4 sequence (Q9HAP6 88-185, limits assumed, looked up): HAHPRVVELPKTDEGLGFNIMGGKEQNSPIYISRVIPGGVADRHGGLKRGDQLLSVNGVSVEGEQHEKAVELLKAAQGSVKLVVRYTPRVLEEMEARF

T5: ARHGEF11, O15085
T5 sequence (O15085 42-136, limits assumed, looked up): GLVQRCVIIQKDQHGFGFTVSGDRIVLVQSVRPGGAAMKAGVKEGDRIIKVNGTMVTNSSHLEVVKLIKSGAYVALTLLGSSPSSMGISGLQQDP

T6: GRIP1_3, Q9Y3R0
T6 sequence (Q9Y3R0 247-346, limits assumed, looked up): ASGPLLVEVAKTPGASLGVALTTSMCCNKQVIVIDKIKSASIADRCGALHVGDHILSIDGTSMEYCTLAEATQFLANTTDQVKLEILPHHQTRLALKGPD

T7: DFNB31_3, Q9P202
T7 sequence (Q9P202 811-907, limits assumed, looked up): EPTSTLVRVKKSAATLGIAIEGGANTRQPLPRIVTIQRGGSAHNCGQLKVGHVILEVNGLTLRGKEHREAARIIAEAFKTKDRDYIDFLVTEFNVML

T8: HTRA3, P83110
T8 sequence (P83110 354-453, limits assumed, looked up): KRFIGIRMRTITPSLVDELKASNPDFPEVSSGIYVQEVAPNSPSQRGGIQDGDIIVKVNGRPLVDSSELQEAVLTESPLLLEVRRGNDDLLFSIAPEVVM

T9: GRIP1_4, Q9Y3R0
T9 sequence (Q9Y3R0 467-571, limits assumed, looked up): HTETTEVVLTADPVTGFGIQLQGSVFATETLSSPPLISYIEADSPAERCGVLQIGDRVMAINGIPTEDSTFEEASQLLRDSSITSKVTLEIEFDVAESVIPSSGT

T10: SIPA1L2, Q9P2F8
T10 sequence (Q9P2F8 945-1036, limits assumed, looked up): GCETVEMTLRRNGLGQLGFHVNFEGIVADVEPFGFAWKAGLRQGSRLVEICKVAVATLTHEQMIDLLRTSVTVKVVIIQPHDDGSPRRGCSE

T11: LIN7C, Q9NUP9
T11 sequence (Q9NUP9 88-185, limits assumed, looked up): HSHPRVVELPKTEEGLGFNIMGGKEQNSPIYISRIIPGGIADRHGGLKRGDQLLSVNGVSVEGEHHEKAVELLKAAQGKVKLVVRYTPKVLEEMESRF

T12: MPP7, Q5T2T1
T12 sequence (Q5T2T1 134-230, limits assumed, looked up): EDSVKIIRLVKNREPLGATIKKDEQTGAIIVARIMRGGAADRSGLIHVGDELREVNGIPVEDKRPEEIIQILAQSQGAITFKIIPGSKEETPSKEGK

T13: PDZRN3_1, Q9UPQ7
T13 sequence (Q9UPQ7 244-349, limits assumed, looked up): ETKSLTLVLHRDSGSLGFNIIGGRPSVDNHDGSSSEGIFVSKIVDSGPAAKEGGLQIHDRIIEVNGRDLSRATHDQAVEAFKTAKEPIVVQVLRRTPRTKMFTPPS


Columns and labels:
Assay in all cases: holdup assay
Design in all cases: key: below the threshold = too weak to quantify, mostly under pKd 3.1 to 4
Conditions in all cases: plain residues with an end cap or a label only (N-terminal biotin on a linker: ado-ado)
GIPC2, Q8TF65 = molecular target: GIPC2, Q8TF65
Sequence of GIPC2, Q8TF65 (Q8TF65 112-203): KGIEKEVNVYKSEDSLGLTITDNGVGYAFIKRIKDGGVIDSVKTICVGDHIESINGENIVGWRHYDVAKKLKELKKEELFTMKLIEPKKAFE

GORASP2, Q9H8Y8 = molecular target: GORASP2, Q9H8Y8
DLG3_3, Q92796 = molecular target: T1, DLG3_3, Q92796
SNTA1, Q13424 = molecular target: T2, SNTA1, Q13424
GRIP2_5, Q9C0E4 = molecular target: GRIP2_5, Q9C0E4
Sequence of GRIP2_5, Q9C0E4 (Q9C0E4 544-642): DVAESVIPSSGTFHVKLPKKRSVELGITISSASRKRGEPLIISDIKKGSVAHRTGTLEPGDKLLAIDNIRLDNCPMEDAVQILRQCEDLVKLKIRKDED

CASK, O14936 = molecular target: CASK, O14936
Sequence of CASK, O14936 (O14936 487-570): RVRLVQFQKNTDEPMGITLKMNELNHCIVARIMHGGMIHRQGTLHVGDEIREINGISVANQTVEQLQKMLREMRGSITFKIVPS

DFNB31_1, Q9P202 = molecular target: T3, DFNB31_1, Q9P202
LIN7B, Q9HAP6 = molecular target: T4, LIN7B, Q9HAP6
NHERF4_2, Q86UT5 = molecular target: NHERF4_2, Q86UT5
Sequence of NHERF4_2, Q86UT5 (Q86UT5 220-308): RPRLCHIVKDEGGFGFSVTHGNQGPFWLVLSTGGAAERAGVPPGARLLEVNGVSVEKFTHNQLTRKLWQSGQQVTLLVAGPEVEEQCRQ

DLG4_2, P78352 = molecular target: DLG4_2, P78352
Sequence of DLG4_2, P78352 (P78352 155-259): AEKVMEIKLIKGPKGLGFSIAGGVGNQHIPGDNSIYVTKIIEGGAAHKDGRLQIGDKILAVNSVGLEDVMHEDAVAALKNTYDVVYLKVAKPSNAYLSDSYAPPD

ARHGEF11, O15085 = molecular target: T5, ARHGEF11, O15085
GRIP1_3, Q9Y3R0 = molecular target: T6, GRIP1_3, Q9Y3R0
GRID2IP_1, A4D2P6 = molecular target: GRID2IP_1, A4D2P6
Sequence of GRID2IP_1, A4D2P6 (A4D2P6 1-87): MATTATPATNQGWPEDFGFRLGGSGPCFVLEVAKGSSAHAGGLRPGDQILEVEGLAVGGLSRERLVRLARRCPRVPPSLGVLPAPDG

FRMPD4, Q14CM0 = molecular target: FRMPD4, Q14CM0
Sequence of FRMPD4, Q14CM0 (Q14CM0 67-160): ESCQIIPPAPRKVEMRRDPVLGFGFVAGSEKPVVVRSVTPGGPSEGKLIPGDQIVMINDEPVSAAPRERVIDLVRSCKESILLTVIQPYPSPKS

DFNB31_3, Q9P202 = molecular target: T7, DFNB31_3, Q9P202
GOPC, Q9HD26 = molecular target: GOPC, Q9HD26
HTRA3, P83110 = molecular target: T8, HTRA3, P83110
GORASP1, Q9BQQ3 = molecular target: GORASP1, Q9BQQ3
Sequence of GORASP1, Q9BQQ3 (Q9BQQ3 1-208): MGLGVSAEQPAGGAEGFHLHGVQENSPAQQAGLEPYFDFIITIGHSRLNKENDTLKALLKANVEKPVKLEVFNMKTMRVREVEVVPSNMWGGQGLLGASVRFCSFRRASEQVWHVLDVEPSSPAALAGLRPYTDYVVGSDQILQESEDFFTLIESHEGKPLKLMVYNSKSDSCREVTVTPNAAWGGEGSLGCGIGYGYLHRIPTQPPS

GRIP1_4, Q9Y3R0 = molecular target: T9, GRIP1_4, Q9Y3R0
SIPA1L2, Q9P2F8 = molecular target: T10, SIPA1L2, Q9P2F8
LIN7C, Q9NUP9 = molecular target: T11, LIN7C, Q9NUP9
MAGI2_4, Q86UL8 = molecular target: MAGI2_4, Q86UL8
Sequence of MAGI2_4, Q86UL8 (Q86UL8 772-865): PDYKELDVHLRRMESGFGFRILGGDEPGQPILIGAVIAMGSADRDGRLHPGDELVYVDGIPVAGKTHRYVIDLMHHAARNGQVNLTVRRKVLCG

Inadl_2, Q8NI35 = molecular target: Inadl_2, Q8NI35
Sequence of Inadl_2, Q8NI35 (Q8NI35 238-335): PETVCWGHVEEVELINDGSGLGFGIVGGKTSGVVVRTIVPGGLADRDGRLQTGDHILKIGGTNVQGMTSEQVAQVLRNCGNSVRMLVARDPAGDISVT

MPP7, Q5T2T1 = molecular target: T12, MPP7, Q5T2T1
PDZRN3_1, Q9UPQ7 = molecular target: T13, PDZRN3_1, Q9UPQ7

Binder	pKd (GIPC2, Q8TF65)	pKd (GORASP2, Q9H8Y8)	pKd (DLG3_3, Q92796)	pKd (SNTA1, Q13424)	pKd (GRIP2_5, Q9C0E4)	pKd (CASK, O14936)	pKd (DFNB31_1, Q9P202)	pKd (LIN7B, Q9HAP6)	pKd (NHERF4_2, Q86UT5)	pKd (DLG4_2, P78352)	pKd (ARHGEF11, O15085)	pKd (GRIP1_3, Q9Y3R0)	pKd (GRID2IP_1, A4D2P6)	pKd (FRMPD4, Q14CM0)	pKd (DFNB31_3, Q9P202)	pKd (GOPC, Q9HD26)	pKd (HTRA3, P83110)	pKd (GORASP1, Q9BQQ3)	pKd (GRIP1_4, Q9Y3R0)	pKd (SIPA1L2, Q9P2F8)	other results
PSDSVGKDVF [EGLN1, Q9GZT9]	below the threshold	below the threshold	below the threshold	below the threshold	below the threshold	below the threshold	3.49	3.55	below the threshold	below the threshold	below the threshold	below the threshold	below the threshold	below the threshold	below the threshold	below the threshold	below the threshold	below the threshold	below the threshold	below the threshold	pKd (LIN7C, Q9NUP9): below the threshold; pKd (MAGI2_4, Q86UL8): below the threshold; pKd (Inadl_2, Q8NI35): below the threshold; pKd (MPP7, Q5T2T1): below the threshold; pKd (PDZRN3_1, Q9UPQ7): below the threshold
HDDYFYHDEL [RCN2, Q14257]	below the threshold	below the threshold	below the threshold	3.6	below the threshold	below the threshold	below the threshold	below the threshold	below the threshold	below the threshold	4	below the threshold	below the threshold	3.94	below the threshold	3.59	below the threshold	below the threshold	below the threshold	below the threshold	pKd (LIN7C, Q9NUP9): below the threshold; pKd (MAGI2_4, Q86UL8): below the threshold; pKd (Inadl_2, Q8NI35): below the threshold; pKd (MPP7, Q5T2T1): below the threshold; pKd (PDZRN3_1, Q9UPQ7): below the threshold
QKNKDREYYV [NRXN3, Q9HDB5]	3.52	4.67	below the threshold	3.8	below the threshold	3.55	below the threshold	below the threshold	below the threshold	3.67	4.2	below the threshold	below the threshold	4.4	3.97	below the threshold	4.84	4.33	below the threshold	below the threshold	pKd (LIN7C, Q9NUP9): 3.59; pKd (MAGI2_4, Q86UL8): 3.8; pKd (Inadl_2, Q8NI35): 4.97; pKd (MPP7, Q5T2T1): 4.92; pKd (PDZRN3_1, Q9UPQ7): below the threshold
THREVKFTSL [CD46, P15529]	below the threshold	below the threshold	4.21	4.17	below the threshold	below the threshold	3.82	3.88	below the threshold	3.7	4.75	below the threshold	below the threshold	4.16	3.85	4.05	below the threshold	below the threshold	below the threshold	below the threshold	pKd (LIN7C, Q9NUP9): below the threshold; pKd (MAGI2_4, Q86UL8): below the threshold; pKd (Inadl_2, Q8NI35): below the threshold; pKd (MPP7, Q5T2T1): below the threshold; pKd (PDZRN3_1, Q9UPQ7): 4.27
KAEEKPPSKV [SCN4B, Q8IWT1]	below the threshold	below the threshold	below the threshold	below the threshold	below the threshold	below the threshold	3.57	below the threshold	3.49	below the threshold	below the threshold	below the threshold	below the threshold	below the threshold	below the threshold	below the threshold	below the threshold	below the threshold	below the threshold	below the threshold	pKd (LIN7C, Q9NUP9): below the threshold; pKd (MAGI2_4, Q86UL8): below the threshold; pKd (Inadl_2, Q8NI35): below the threshold; pKd (MPP7, Q5T2T1): below the threshold; pKd (PDZRN3_1, Q9UPQ7): below the threshold
